Source: the supplement of paper PMC12042874
± gives the uncertainty stated by the source.

Assay: amyloid nucleation score (Sup35N fusion, yeast selection) (log enrichment); library NNK3; higher = more nucleation; inactive = no reads after selection
How it was run: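 In psi-negative yeast, Sup35N fusions carrying peptides of 20 random codons were induced with 100 μM copper sulfate for 24 hours. The cells then grew 7 days at 30°C on medium lacking adenine and uracil, and plasmid inserts from input and output were Illumina-sequenced, excluding sequences with under 100 input reads. Nucleation score is the DiMSum log enrichment of output over input reads, centred on the mode score of non-aggregating sequences.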

Row | Substance | amyloid nucleation score
1 | PCLYLGIFARTKMHPTNDCM | -0.88 ± 1.1
2 | INWIWAYI | inactive
3 | TVTHALLSYKCHNG | inactive
4 | ADFGLHRNCRRGCLGMFFL | inactive
5 | NRENFMVTLLSLWTCNTCQV | 2.46 ± 0.054
6 | FTPYICVVQLLCYCMILRIY | inactive
7 | CRTSHSWVMYWLRREMCY | inactive
8 | FKRYY | inactive
9 | HLIMNSDLGAATNIFMNPVA | inactive
10 | YFRGPF | inactive
11 | LTCPSFCVSRLRESWDESLS | inactive
12 | LARDYSFATHSGLRRKSLKQ | inactive
13 | TMGVSLHHIKGPFWSVIYCI | 0.481 ± 0.32
14 | MLLFHLVVQLNDLLSAPLRA | inactive
15 | ILVYLASLVTNFNYVHIPLG | 0.969 ± 0.18
16 | TRTMAVDTVGCSENRDAAGD | inactive
17 | KCDEDCYAFDVYLSMGYDVS | inactive
18 | LQCLVSAKCNFCMYR | 0.869 ± 0.19
19 | GSGRNLSVLVYRLWVDGPTG | inactive
20 | KVSMYRVVWCPASFGVIIVA | inactive
21 | SNMVPLVNSIPRKGVVKG | inactive
22 | VYWHVWVALSCFMPANIGVV | inactive
23 | STGYYVMDVYLTVAYYVDSN | inactive
24 | FCYSDLNYRWICYSRDVESS | inactive
25 | QPCPYKLCQFFRKDA | inactive
26 | LNRWCCFSVITMCLMANFDA | 2 ± 0.089
27 | TFGAVTCMSRCVKSSYNLKW | 1.35 ± 0.088

Row | Substance | amyloid nucleation score
28 | VWVIVKTNLLLVAGQGGAFG | 0.693 ± 0.15
29 | VHYSWSTFFD | 0.593 ± 0.27
30 | APLSNFALHIPEELRLESSF | 0.176 ± 0.77
31 | DNQVICISCYGLIGLKGGRQ | 1.5 ± 0.11
32 | RRIASEWDLTTVPLLLV | inactive
33 | RRMRFCKTSYEYLCNYAAPK | inactive
34 | FVWMLRWMGRDD | 0.816 ± 0.24
35 | KFRWVFYFGSAMEVREGSEF | -0.141 ± 0.45
36 | ARKMRKAMYLRGTSALVPCL | inactive
37 | CMHGKGHSTFINNKDPVKVR | inactive
38 | SYFFVIQGQLGCITGVDFIW | inactive
39 | YSKEWVFISIIQKLADGQCN | -0.182 ± 0.66
40 | ERFLIPSDLNYKYA | inactive
41 | WSPKTLLM | inactive
42 | YSVVDEKVALSSSWHSCLPL | inactive
43 | DMWYRYYMSLGSCKRGSVWK | inactive
44 | LGVTGINSVIYMYEMVS | inactive
45 | AISYFSSWGAM | 0.485 ± 0.24
46 | EAEGNINTRGTHRCLYGSFK | inactive
47 | LIFFWSIEA | inactive
48 | LYTAATLGSTRLAYCKKEWG | inactive
49 | NRNYVGPWTLKMGLVC | inactive
50 | RVVNFFVGVNTNEAMFKRSV | 2.71 ± 0.067
51 | MSMRLRIYKFFEICANSMMP | inactive
52 | FGLNSCTSYKYQLSMSGFST | -0.491 ± 0.66
53 | CMCRLEGRTSDLCQESGSCC | -1.13 ± 1.5
54 | SLNNYFYSTNYETSFTLD | inactive

Row | Substance | amyloid nucleation score
55 | SEHDDGMVSPKTHTVGSYTC | inactive
56 | CQLLHMELDNARRCEIKKPA | inactive
57 | WVQPSYRPSCVLYRSNNNNR | inactive
58 | GWRAIWGNWNLQYRTS | inactive
59 | DEPAFQDFVLYTSSSSCWRY | inactive
60 | FNWFLRWFNPVCKDALWVEC | inactive
61 | KRSNISV | inactive
62 | RMGYFSCQVRYSRFLTIPSR | inactive
63 | THANEGRCYMVSSVMEVSPL | inactive
64 | YLSGIPTVVIHVIFGMKDW | inactive
65 | SQSNGFGFFYMMSLVSWVDV | inactive
66 | NLPVF | inactive
67 | LDNISVLIIFL | 1.34 ± 0.11
68 | QVGSLFWLRY | inactive
69 | LLFLNFTICCYSFRKGMHGF | -0.344 ± 0.32
70 | SDIMNDH | inactive
71 | VRFVSYRLVGSV | inactive
72 | YTDTYSSLKDLPTGINCYNI | inactive
73 | RLNGRDHL | inactive
74 | IRSIM | inactive
75 | NYGFGRVSAFYHQLA | inactive
76 | SVRYVETYSHRTNTVDAAFV | inactive
77 | KSNSSLTRRARYETSTSSSP | inactive
78 | YVVHRLSRVFQLANLYYYAK | inactive
79 | QQEKLCLKHTSQVDI | inactive
